Measured values: patent US20200319204A1

Columns and labels:
[1] = molecular target: semisynthetic H3K4me3 nucleosome (internal standard ladder) (human) (UniProt Q71DI3); test: ICeChIP-qPCR, capture of barcoded nucleosome standards doped into mESC nucleosomes
[2] = molecular target: semisynthetic H3K36me3 nucleosome (internal standard) (human) (UniProt Q71DI3); test: as above
[3] = molecular target: unmodified nucleosome (internal standard) (human) (UniProt Q71DI3); test: as above
[4] = molecular target: semisynthetic H3K27me3 nucleosome (internal standard ladder) (human) (UniProt Q71DI3); test: multi-standard ICeChIP-seq, six nucleosome ladders doped equimolar into mESC nuclei
[5] = molecular target: semisynthetic H3K9me3 nucleosome (internal standard ladder) (human) (UniProt Q71DI3); test: as above

**Q.** With H3K4me3 antibody (Active Motif AM39159) as the substance, how does the apparent specificity (on target signal against H3K36me3 nucleosome) [1] read?
**A.** The apparent specificity (on target signal against H3K36me3 nucleosome) was 30 fold.

**Q.** And the enrichment (internal standard, ICeChIP-qPCR) [1]?
**A.** Its enrichment (internal standard, ICeChIP-qPCR) is 81.

**Q.** What about the enrichment (internal standard, ICeChIP-qPCR) [2] of the same substance?
**A.** The enrichment (internal standard, ICeChIP-qPCR) was 2.8.

**Q.** And the enrichment (internal standard, ICeChIP-qPCR) [3]?
**A.** Its enrichment (internal standard, ICeChIP-qPCR) is 1.9.

**Q.** How did the percent of the on-target signal [4] turn out when “H3K9me3 antibody M309M3-A (Hattori et al., 2013)” was run?
**A.** Its percent of the on-target signal is 10%.

**Q.** H3K27me3 antibody (Millipore 07-449) was tested. Which percent of the on-target signal [5] did it give?
**A.** Its percent of the on-target signal is 26%.
